The labels stand for the following.
B1: H2M2689N (antibody, V domains shown)
VH: QVQLVESGGGVVQPGRSLRLSCAASGFTFSRKGMHWVRQAPVKGLEWVAVISYDGSNKYYADSVKGRFTISRDNSKNTLYLQMNSLTAEDTAVYYCAKEGGHDYGGTFDYWGQGTLVTVSS
VL: not shown
notes: Hybridoma antibody, human variable regions, mouse IgG2 Fc
B2: H2M2690N (antibody, V domains shown)
VH: EVQLVESGGGLVQPGRSLRLSCAASGFTFDDYTMHWVRQAPGKGLEWVSGISWNSGSIGYADSVKGRFTISRDNAKKSLYLQMNSLRAEDTALYYCAKDNSGYGHYYYGMDVWGQGTTVTVAS
VL: EIVMTQSPATLSVSPGERATLSCRASQSVSSNLAWYQQKPGQAPRLLIYGASTRATGIPARFSGSGSGTEFTLTISSLQSEDFAVYYCQHYINWPLTFGGGTKVEIK
notes: as for B1
B3: H1M2692N (antibody, V domains shown)
VH: EVQLVESGGGLVQPGGSLRLSCAASGFSFDDYTMHWVRQPPGKGLEWVSGISWNSGSIGYADSVKGRFTISRDNAKNSLYLQMNSLRAGDTALYYCAKDNSGYGYYYYYGMDVWGQGTTVTVSS
VL: EIVMTQSPATLSVSPGERATLSCRASQSVSSNLAWYQQKPGQAPRLLIYGASTRATGIPARFSGSGSGTEFTLTISSLQSEDFAVYYCQQYYNWPLTFGGGTKVEIK
notes: Hybridoma antibody, human variable regions, mouse IgG1 Fc
B4: H2M2707N (antibody, V domains shown)
VH: QVQLVESGGGVVQPGRSLRLSCIASGFTFRSYGMHWVRQAPGKGLEWVAMIYYDGNNKYYADSVRGRFTISRDNSKNTLYLQMNSLRADDTAVYFCARGPGYNWLDPWGQGTLVTVSS
VL: EIVMTQSPATLSVSPGERATLSCRASQSVSSNLAWYQQKPGQAPRLLIYGASTRATGIPARFSGSGSGTEFTLTISSLQSEDFAVYYCQQYNNRPLTFGGGTKVEIK
notes: as for B1
B5: H2M2708N (antibody, V domains shown)
VH: QVQLVESGGGVVQPGRSLRLSCAASGFTFRSFGMHWVRQAPGRGLEWVAMIYFDGKNKYYADSVRGRFTISRDNSKNTLYLEMSSLRAEDTAVYFCARGPGYNWLDPWGQGTLVTVSS
VL: EIVMTQSPATLSVSPGERVTLSCRASQSISRNLAWYQQKPGQAPRLLIYGASTRATGVPARFSGSGSGTEFTLTISSLQSEDFAVFHCQQYNNRPLTFGGGTEVEIK
notes: as for B1
B6: H1M2712N (antibody, V domains shown)
VH: EVQLVESGGGLVQPGGSLRLSCAATGFTFDDFTMHWVRQAPGKGLEWVSGISWNSGSIGYVDSVKGRFTISRDNAKNSLYLQMNSLRAEDTALYYCAKDNSGYGYYYYGMDVWGQGTTVTVSS
VL: EIVMTQSPATLSVSPGERATLSCRASHSVSRNSAWYQQKPGQAPRLLIYGASTRATGIPARFSGSGSGTEFTLTISSLQSEDFAIYYCQQYNNWPLTFGGGTKVEIK
notes: Mouse IgG1 Fc form
B7: H2M2691N (antibody, V domains shown)
VH: EVQLVESGGGLVQPGRSLRLSCAASGFTFDDYTMHWVRQAPGKGLEWVSGISWNSGSIGYADSVKGRFTISRDNAKKSLYLQMNSLRAEDTALYYCAKDNSGYGHYYYGMDVWGQGTTVTVAS
VL: EIVMTQSPATLSVSPGERATLSCRASQSVSSNLAWYQQKPGQAPRLLIYGASTRATGIPARFSGSGSGTEFTLTISSLQSEDFAVYYCQHYINWPLTFGGGTKVEIK
notes: as for B1
B8: H2M2885N (antibody, V domains shown)
VH: QVQLVESGGGVVQPGRSLRLSCAASGFTFRSFGMHWVRQAPGRGLEWVAMIYFDGKNKYYADSVRGRFTISRDNSKNTLYLEMSSLRAEDTAVYFCARGPGYNWLDPWGQGTLVTVSS
VL: EIVMTQSPATLSVSPGERVILSCRASQSISRNLAWYQQKPGQAPRLLIYGATTRATGVPARFSGSGSGTEFTLTISSLQSEDFAVFYCQQYNNRPLTFGGGTEVEIK
notes: as for B1
B9: H2M2711N (antibody, V domains shown)
VH: QVQLVESGGGVVQPGRSLRLSCAASGFTFRSFGMHWVRQAPGRGLEWVAMIYFDGKNKYYADSVRGRFTISRDNSKNTLYLEMSSLRAEDTAVYFCARGPGYNWLDPWGQGTLVTVSS
VL: EIVMTQSPATLSVSPGERATLSCRASQSVSRNLAWYQQKPGQAPRLLIYGASTRATGVPARFSGSGSGTEFTLTISSLQSEDFAVFHCQQYNNRPLTFGGGTEVEIK
notes: as for B1
B10: H2M2774N (antibody, V domains shown)
VH: QVQLVESGGGVVQPGRSLRLSCVASGFTFRSYGMHWVRQAPGKGLQWVAMIYYDGKNKYYADSVRGRFTISRDNSKNTLYLQMNSLRAEDTAMYFCARGPGYNWLDPWGQGTLVTVSS
VL: EIVMTQSPATLSVSPGERATLSCRASQRISSNLAWYQQKPGQAPRLLIYGASTRATGSPARFSGSGSGTEFTLTISSLQSEDVAVYYCQQHNNWPLTFGGGTKVEIK
notes: as for B1
B11: H2M2706N (antibody, V domains shown)
VH: QVQLVESGGGVVQPGRSLRLSCAASGFTFRSYAMHWVRQAPGKGLEWVAMVYYDGNNQYYADSVRGRFTISRDNSKNTLYLQMNSLRADDTAVYFCARGPGYNWLDPWGQGTLVTVSS
VL: EIVMTQSPATLSVSPGERATLSCRASQSVSRNLAWYQQKPGQAPRLLIYGASTRATGIPARFSGSGSGTDFTLTISSLQSEDFAVYYCQQYNNWPLTFGGGTKVVIK
notes: as for B1
B12: H2M2775N (antibody, V domains shown)
VH: QVQLVESGGGVVQPGRSLRLSCAASGFTFRSFGMHWVRQAPGRGLEWVAMIYFDGKNKYYADSVRGRFTISRDNSKNTLYLEMSSLRAEDTAVYFCARGPGYNWLDPWGQGTLVTVSS
VL: EIVMTQSPATLSVSPGERVILSCRASQSISRNLAWYQQKPGQAPRLLIYGATTRATGVPARFSGSGSGTEFTLTISSLQSEDFAVFYCQQYNNRPLTFGGGTEVEIK
notes: as for B1
B13: H2M2886N (antibody, V domains shown)
VH: QVQLVESGGGVVQPGRSLRLSCAASGFTFRSFGMHWVRQAPGRGLEWVAMIYFDGKNKYYADSVRGRFTISRDNSKNTLYLEMSSLRAEDTAVYFCARGPGYNWLDPWGQGTLVTVSS
VL: EIVMTQSPATLSVSPGERVILSCRASQSISRNLAWYQQKPGQAPRLLIYGATTRATGVPARFSGSGSGTEFTLTISSLQSEDFAVFYCQQYNNRPLTFGGGTEVEIK
notes: as for B1
B14: H2M2710N (antibody, V domains shown)
VH: QVQLVESGGGVVQPGRSLRLSCAASGFTFRSFGMHWVRQAPGRGLEWVAMIYFDGKNKYYADSVRGRFTISRDNSKNTLYLEMSSLRAEDTAVYFCARGPGYNWLDPWGQGTLVTVSS
VL: EIVMTQSPATLSVSPGERATLSCRASQSVSRNLAWYQQKPGQAPRLLIYGASTRATGVPARFSGSGSGTEFTLTISSLQSEDFAVFHCQQYNNRPLTFGGGTEVEIK
notes: as for B1
B15: H2M2689N (antibody, mouse IgG2, V domains shown)
VH: QVQLVESGGGVVQPGRSLRLSCAASGFTFSRKGMHWVRQAPVKGLEWVAVISYDGSNKYYADSVKGRFTISRDNSKNTLYLQMNSLTAEDTAVYYCAKEGGHDYGGTFDYWGQGTLVTVSS
VL: not shown
notes: H2M: mouse IgG2 Fc, human variable regions; divalent
B16: H2M2779N (antibody, V domains shown)
VH: EVQLVESGGGLVQPGGSLRLSCAATGFTFDDFTMHWVRQAPGKGLEWVSGISWNSGSIGYVDSVKGRFTISRDNAKNSLYLQMNSLRAEDTALYYCAKDNSGYGYYYYGMDVWGQGTTVTVSS
VL: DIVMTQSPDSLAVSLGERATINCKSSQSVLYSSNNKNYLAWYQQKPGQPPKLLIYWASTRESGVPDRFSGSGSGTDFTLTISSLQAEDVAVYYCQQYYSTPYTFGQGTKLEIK
notes: as for B15
B17: H1M3544N (antibody, mouse IgG1, V domains shown)
VH: EVQLVESGGGLVQPGRSLRLSCAASGFTFDDYTMHWVRQVPGKGLEWVSGISWNSGSLAYADSVKGRFTISRDNAKNSLYLQMNSLHPEDTALYYCVKDGSGYGHYSYYGLDVWGQGTTVTVSS
VL: not shown
notes: H1M: mouse IgG1 Fc, human variable regions; divalent

The target of the first assay is T1, Soluble heterodimeric CD3 protein (hCD3-epsilon/hCD3-delta) with a human Fc tag (hFcΔAdp/hFc) or a mouse Fc … (human, UniProt P07766 23-126; P04234 22-105).
T1 construct: also called hCD3ε/δ; not shown: Fc tag: human (hFcΔAdp/hFc); which tag was used in Ta
T1 sequence (P07766 23-126 limits assumed, stated change not applied, chain 1 of 2): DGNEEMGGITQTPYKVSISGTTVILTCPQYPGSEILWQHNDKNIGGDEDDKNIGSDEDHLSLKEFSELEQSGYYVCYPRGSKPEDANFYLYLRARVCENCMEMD
T1 sequence (P04234 22-105 limits assumed, stated change not applied, chain 2 of 2): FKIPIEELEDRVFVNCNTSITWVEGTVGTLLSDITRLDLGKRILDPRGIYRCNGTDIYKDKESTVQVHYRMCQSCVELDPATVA
Description: SPR Biacore, 25 C, antibody-capture format. Here is the method: (§1) Measurements were conducted on a T200 Biacore™ instrument.
Soluble heterodimeric CD3 protein (hCD3-epsilon/hCD3-delta; SEQ ID NOs:1652/1653) with either a human Fc tag (hFcΔAdp/hFc; SEQ ID NOs:1683/1684) or a mouse Fc tag (mFcΔAdp/mFc; SEQ ID NOs:1685/1686) was injected over the antibody captured surface and the binding response was recorded. Heterodimeric CD3 protein was purified using the method described in Davis et al. (US2010/0331527).
(§2) Kinetic association (kₐ) and dissociation (kd) rate constants were determined by processing and fitting the data to a 1:1 binding model using Scrubber 2.0 curve fitting software. Binding dissociation equilibrium constants (KD) and dissociative half-lives (t₁₁₂) were calculated from the kinetic rate constants as: KD (M)=kd/kₐ; and t_{1/2} (min)=(ln 2/(60*kd). NT=not tested; NB=no binding observed.
As for B1, the Kd was 4.18 nM, the “T½” value is 4 min, the koff is 0.00323 s⁻¹ and the kon is 773000 M⁻¹ s⁻¹.
B2: the affinity, expressed as Kd, was 20.9 nM; the “T½” value was found to be 57 min; the koff stood at 0.000202 s⁻¹; the kon was found to be 9700 M⁻¹ s⁻¹.
Consider B3, for which binding was characterised by a dissociation constant (Kd) of 53.9 nM, the “T½” value was 27 min, the dissociation rate constant (koff) stood at 0.000434 s⁻¹ and the kon was found to be 8050 M⁻¹ s⁻¹.
Regarding B4, the Kd is 63.5 nM, the “T½” value is 6 min, the koff stood at 0.00187 s⁻¹ and the kon amounted to 29500 M⁻¹ s⁻¹.
For B5 the same measures were 8.82 nM, 19 min, 0.000612 s⁻¹ and 69400 M⁻¹ s⁻¹.
As for B6, the Kd is 23.5 nM, the “T½” value turned out to be 53 min, the koff was 0.000219 s⁻¹ and the kon came out at 9320 M⁻¹ s⁻¹.
For the molecule B7, the Kd was determined as 20.1 nM, the “T½” value was 56 min, the koff is 0.000207 s⁻¹ and the kon amounted to 10300 M⁻¹ s⁻¹.
With B8, the Kd was 9.54 nM, the “T½” value came to 18 min, the koff stood at 0.000651 s⁻¹ and the kon turned out to be 68200 M⁻¹ s⁻¹.
Take B9: the Kd was 11.4 nM, the “T½” value came to 15 min, the koff came out at 0.000767 s⁻¹ and the kon came out at 67200 M⁻¹ s⁻¹.
Take B10: the affinity, expressed as Kd, was 11.8 nM; the “T½” value was found to be 13 min; the koff worked out at 0.000918 s⁻¹; the kon worked out at 77900 M⁻¹ s⁻¹.
Consider B11, for which the Kd is 135 nM, the “T½” value turned out to be 3 min, the koff stood at 0.00444 s⁻¹ and the kon was 32900 M⁻¹ s⁻¹.
Take B12: binding was put at a Kd of 8.98 nM, the “T½” value was determined as 18 min, the dissociation rate constant (koff) was determined as 0.000626 s⁻¹ and the kon was found to be 69700 M⁻¹ s⁻¹.
The corresponding values for B13 are 8.96 nM, 18 min, 0.000653 s⁻¹ and 72900 M⁻¹ s⁻¹.
As to B14, the Kd is 11.2 nM, the “T½” value turned out to be 15 min, the koff turned out to be 0.000753 s⁻¹ and the kon amounted to 67200 M⁻¹ s⁻¹.

The target of another assay is T2, Soluble heterodimeric CD3 protein (hCD3-epsilon/hCD3-delta) with either a human Fc tag (hFcΔAdp/hFc) or a … (human, UniProt P07766 23-126; P04234 22-105).
T2 construct: also called hCD3ε/δ; not shown: Fc tag: human (hFcΔAdp/hFc)
T2 sequence (P07766 23-126 limits assumed, stated change not applied, chain 1 of 2): as the sequence (P07766 23-126 limits assumed, stated change not applied, chain 1 of 2) above
T2 sequence (P04234 22-105 limits assumed, stated change not applied, chain 2 of 2): as the sequence (P04234 22-105 limits assumed, stated change not applied, chain 2 of 2) above
Description: SPR Biacore 25C antigen-capture. Here is the method:
as §1
In the antigen-capture format, heterodimeric CD3 protein was captured using a rabbit anti-mouse Fc or mouse anti-human Fc and the respective antibodies were injected over the captured antigen.
as §2
In general terms: SPR reads the build-up and loss of mass on a sensor chip optically.
With B15, the Kd was 0.0583 nM, the “T½” value came to 116 min, the off-rate (koff) was found to be 9.97e-05 s⁻¹ and the kon came out at 1.71e+06 M⁻¹ s⁻¹.
On to B16, for which the Kd is 0.0938 nM, the “T½” value amounted to 941 min, the koff worked out at 1.23e-05 s⁻¹ and the kon was found to be 128000 M⁻¹ s⁻¹.
As to B17, the “T½” value worked out at 193 min.

For orientation: Kd means a measure of binding affinity in units of concentration. One may read the koff as a measure of how fast the partners let go of each other. As a reminder, the kon is a measure of how fast the partners come together. Read a high kon as faster complex formation.

The record behind these values is US20190127480A1 (Regeneron, published 2019).
